Data taken from patent US7285654 (SIGNAL PHARMACEUTICALS, dated 2007).
Square brackets hold non-standard residues; d marks the D form. Ends that are not written are not given here. pS = N[C@@H](COP(=O)(O)O)C(=O)O

Molecular target: IKK signalsome (stimulus-inducible IκB kinase complex) immunopurified from TNFα-stimulated HeLa cells (human)
Test: product inhibition of immunopurified IKK signalsome; 32P incorporation into GST-IκBα (1-54), TCA precipitation, Dixon analysis

Chain of IKK signalsome (stimulus-inducible IκB kinase complex) immunopurified from TNFα-stimulated HeLa cells (human) (chain, as listed by the source, chain 1 of 3): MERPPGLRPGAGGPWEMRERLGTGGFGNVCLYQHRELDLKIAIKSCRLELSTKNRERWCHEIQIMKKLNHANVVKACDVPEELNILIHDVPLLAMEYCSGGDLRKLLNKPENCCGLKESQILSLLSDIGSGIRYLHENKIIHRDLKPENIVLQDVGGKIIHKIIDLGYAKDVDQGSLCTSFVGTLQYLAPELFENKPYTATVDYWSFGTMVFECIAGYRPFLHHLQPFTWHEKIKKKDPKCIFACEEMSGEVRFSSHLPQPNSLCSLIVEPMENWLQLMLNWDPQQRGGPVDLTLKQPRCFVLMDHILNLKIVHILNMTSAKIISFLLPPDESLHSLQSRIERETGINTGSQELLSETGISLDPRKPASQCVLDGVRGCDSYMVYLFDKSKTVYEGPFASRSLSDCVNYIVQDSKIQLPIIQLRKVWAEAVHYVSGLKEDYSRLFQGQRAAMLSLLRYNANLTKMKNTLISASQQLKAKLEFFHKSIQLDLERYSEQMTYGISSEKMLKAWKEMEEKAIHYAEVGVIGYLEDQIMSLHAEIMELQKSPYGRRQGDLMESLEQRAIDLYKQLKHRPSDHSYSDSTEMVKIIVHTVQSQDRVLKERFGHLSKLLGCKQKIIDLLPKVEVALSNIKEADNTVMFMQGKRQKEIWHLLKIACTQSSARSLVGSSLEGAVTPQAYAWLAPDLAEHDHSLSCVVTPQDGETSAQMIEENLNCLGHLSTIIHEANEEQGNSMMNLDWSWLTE
Chain of IKK signalsome (stimulus-inducible IκB kinase complex) immunopurified from TNFα-stimulated HeLa cells (human) (chain, as listed by the source, chain 2 of 3): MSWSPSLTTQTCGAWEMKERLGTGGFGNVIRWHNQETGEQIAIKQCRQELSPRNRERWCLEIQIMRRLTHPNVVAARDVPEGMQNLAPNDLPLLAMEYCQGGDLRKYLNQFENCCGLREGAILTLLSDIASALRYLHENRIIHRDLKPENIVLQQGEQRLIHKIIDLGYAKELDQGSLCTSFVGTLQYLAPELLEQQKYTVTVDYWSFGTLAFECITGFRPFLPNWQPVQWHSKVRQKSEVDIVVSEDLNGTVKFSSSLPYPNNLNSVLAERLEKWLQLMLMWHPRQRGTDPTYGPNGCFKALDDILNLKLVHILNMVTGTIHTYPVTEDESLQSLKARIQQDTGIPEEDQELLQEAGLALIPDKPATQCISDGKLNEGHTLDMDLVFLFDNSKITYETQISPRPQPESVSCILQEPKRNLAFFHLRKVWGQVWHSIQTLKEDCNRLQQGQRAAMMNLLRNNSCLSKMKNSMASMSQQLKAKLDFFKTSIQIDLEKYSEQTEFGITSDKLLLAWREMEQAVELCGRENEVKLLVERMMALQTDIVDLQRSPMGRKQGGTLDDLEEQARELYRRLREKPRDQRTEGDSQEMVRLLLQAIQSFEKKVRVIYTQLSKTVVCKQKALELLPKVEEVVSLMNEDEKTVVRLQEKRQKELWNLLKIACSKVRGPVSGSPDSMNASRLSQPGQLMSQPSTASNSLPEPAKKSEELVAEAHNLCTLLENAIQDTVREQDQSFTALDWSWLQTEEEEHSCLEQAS
Chain of IKK signalsome (stimulus-inducible IκB kinase complex) immunopurified from TNFα-stimulated HeLa cells (human) (chain, as listed by the source, chain 3 of 3): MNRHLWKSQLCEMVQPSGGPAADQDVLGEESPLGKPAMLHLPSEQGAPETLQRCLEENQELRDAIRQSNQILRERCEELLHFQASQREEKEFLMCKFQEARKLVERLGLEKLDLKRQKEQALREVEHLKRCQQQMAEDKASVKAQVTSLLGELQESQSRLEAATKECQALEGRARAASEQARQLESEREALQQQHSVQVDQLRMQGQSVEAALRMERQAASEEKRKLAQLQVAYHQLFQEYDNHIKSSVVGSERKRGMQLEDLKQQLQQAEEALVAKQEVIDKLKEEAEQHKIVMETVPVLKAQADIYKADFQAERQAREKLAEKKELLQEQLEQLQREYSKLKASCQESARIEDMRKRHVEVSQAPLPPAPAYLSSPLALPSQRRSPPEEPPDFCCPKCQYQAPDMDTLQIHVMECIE

B1: IκBα (21-41) peptide P32,36 (doubly phosphorylated IκBα peptide bearing phosphoserines at both positions 32 and 36) (peptide)
peptide: CKKERLLDDRHD[pS]GLD[pS]MKDEE
notes: The phosphorylated forms are described as the same peptide chemically phosphorylated; also called P32, 36 peptide
B1 gave a Ki of 14 µM.
